Test [1] concerns the target bEnd.3 ECM. Nature of the test: Affinity measurement of purified VLR on bEnd.3 ECM (ELISA, one-site equilibrium binding model). Details: species or system mouse. The note with it: three replicates, monomeric equilibrium binding model; read-out: Monomeric dissociation constant (Kd) for binding to bEnd.3 ECM. The protocol: To characterize VLR affinity for bEnd.3 ECM, dilutions of purified VLR were incubated with ECM. P1C10 VLR was diluted using a sixfold dilution scheme from 10 μM to 0.21 nM and then incubated with bEnd.3 ECM. Wells were washed five times with PBS+0.05% Tween 20 and then inubcated with anti-myc 9E10, 1:750, (BioLegend) and goat anti-mouse IgG modified with HRP. Wells were washed seven times with PBS+0.05% Tween 20 and then incubated with TMB substrate. Reaction was stopped after 15 min by acidification with 1 M HCl. Absorbance at 450 nm was quantified, and data were fit to a one-site equilibrium binding model to determine Kd as previously described (43). The amino acid sequence for VLR P1C10 is […]
For orientation: In an ELISA, binding on a coated surface is turned into a signal by an enzyme label.

Test [2] deals with bEnd.3 ECM. The experiment in a line: ELISA-based screen of comparative VLR binding to bEnd.3 and 3T3 ECM. The conditions noted are these: VLR reduced off yeast surface; anti-c-myc detection. Further details: species or system mouse. From the text:
Brain ECM-binding VLRs were identified by mining a yeast surface display library of VLRs. The library was generated from the VLR repertoire of lamprey immunized with mechanically isolated murine brain microvessel plasma membrane preparations that contained associated brain ECM (20). The library was first enriched for ECM binders via two rounds of biopanning on decellularized ECM generated by cultured mouse brain endothelial cells (bEnd.3 cell line). Next, we sought to identify ECM-binding clones that preferentially bound bEnd.3 ECM compared to control mouse fibroblast ECM (3T3 cell line). For this analysis, we picked individual yeast clones into 96-well plates and then expanded and induced them for VLR display. To enable moderate throughput analysis of the clones and avoid cumbersome subcloning of many VLR clones, we removed the VLRs directly from yeast surface via reduction. After removal, we evaluated the comparative binding of VLRs to bEnd.3 and 3T3 ECM via ELISA screening (FIG. 1A). […]
The VLR YSD library underwent two rounds of biopanning against bEnd.3 ECM to enrich for brain ECM-binding clones as previously described (20, 42). […] VLR binding was detected by incubation with one-step 3,3′,5,5′-tetramethylbenzidine (TMB) substrate for 15 to 30 min to develop signal. The reaction was stopped via acidification with 1 M HCl and quantified using absorbance signal at 450 nm. […]

In test [3] the test system is bEnd.3 ECM. The experiment in a line: Biopanning of individual VLR-displaying yeast clones onto bEnd.3 and 3T3 ECM, bright-field microscopy. In kind it is binding, mouse. The conditions noted are these: yeast-displayed VLR, qualitative. The protocol: FIGS. 1A-1D. Identification of VLRs that bind brain ECM. (A) A yeast surface display VLR library underwent two rounds of biopanning to enrich for clones that bind bEnd.3 ECM. Next, individual clones were grown, induced and screened for comparative binding to bEnd.3 and 3T3 ECM. VLRs were released from the yeast surface using reducing agent and VLR binding to ECM was measured by probing the anti-c-myc epitope tag in an ELISA format. (B) Fold-changes in ECM binding. The ratio of bEnd.3 ECM/3T3 ECM ELISA signals is shown for 285 VLR clones. Lead clones P3A8 and P1C10 are noted. (C) Preferential binding to bEnd.3 ECM was evaluated for selected clones by biopanning individual clones onto bEnd.3 and 3T3 ECM. Yeast binding was qualitatively analyzed by bright field microscopy. Scale bars=100 μm. (D) VLRs were reduced off the yeast surface and used in labeling murine brain sections and detected via an anti-c-myc epitope tag antibody (green). Microvessels (magenta) were labeled with […] lectin, and cell nuclei (blue) were visualized with Hoechst 33342 stain. Scale bars=20 μm.
Brain ECM-binding VLRs were identified by mining a yeast surface display library of VLRs. […] After removal, we evaluated the comparative binding of VLRs to bEnd.3 and 3T3 ECM via ELISA screening (FIG. 1A). […]

In the next test the test system is U87 cells. The experiment in a line: In vitro U87 cytotoxicity assay on bEnd.3 ECM (CellTiter-Glo). The note with it: VLR-conjugated doxorubicin-loaded liposomes bound to bEnd.3 ECM, 2 h incubation, unbound washed, 72 hours culture; read-out: EC50, U87 cell viability as a function of doxorubicin concentration. The format is cell-based, human. The text has this: EC50 calculations were made using GraphPad software suite. […] Data are presented as mean pixel intensity±SD.
For orientation: Cellular ATP, detected with luciferase, serves as a proxy for viable cell number.

B1: P1C10: Lamprey variable lymphocyte receptor clone binding brain ECM, SEQ ID NO:1 (protein)
chain: ACPSQCSCDQTTVKCHSRRLTSVPAGIPTTTKILRLYSNQITKLEPGVFDHLVNLEKLYISWNQLSALPVGVFDKLTKLTHLSLGYNQLKSVPRGAFDNLKSLTHIWLLNNPWDCECSDILYLKNWIVQHASIVNLQGHGGVDNVKCSGTNTPVRAVTEASTSPSKCP
modifications: Synthetic- VLR clone P1C10
The Kd is the constant that tells how readily two partners part at equilibrium. Take B1: the Kd on bEnd.3 ECM [1] is 48.4 ± 6.05 nM. Also, the “ELISA fold change (ratio of bEnd.3 ECM/3T3 ECM ELISA signals)” value in the test on bEnd.3 ECM [2] was found to be 4.2 fold. Moreover, the “Yeast clone binding to bEnd.3 ECM compared to 3T3 ECM” value in the test with bEnd.3 ECM [3] is “bound selectively to bEnd.3 ECM compared to 3T3 ECM”. Besides, the EC50 in the test on U87 cells was found to be 199 ± 1.7 nM.

For the origin of these results see patent US12077609B2, “Variable lymphocyte receptors that target the brain extracellular matrix and methods of use” (Wisconsin Alumni Research Foundation, priority 2018, dated 2024).
